Measured values taken from the supplement of paper PMC6757056.
± gives the standard deviation of the averaged measurements.

B1: library; a variant is named by its letters at N, in order (parent)
chain: GCUGUCACCGGAAUACCAGCAUCGUCUUGAUGCCCUUGGAAGUCCGGUCUGAUGAGUCCNNNNNGGACGAAACAGC

Experiments:
theophylline [1] = variants of: B1; assay: FACS-Seq fitted mean relative fluorescence mCherry/BFP without ligand (log10 relative fluorescence); higher = higher reporter protein expression; settings: HEK293T, ligand present: no
Description: (§1)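 Hammerhead (sTRSV) ribozyme switch libraries with a ligand aptamer grafted on stem I and a randomized N4-6 loop II, cloned into the 3' UTR of mCherry and transiently transfected into HEK293T cells; RNA-Seq 72 h post transfection with ligand added 1 h before transfection; RNA read count / plasmid DNA read count normalized to the non-cleaving sTRSVctl (x100), log10; sequences with >100 DNA reads. FACS-Seq: lentiviral library sorted into 6 bins after 48 h ligand, log-normal fit mean of mCherry/BFP scaled to controls. Printed sequences are partial switch sequences.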

theophylline [2] = variants of: B1; assay: normalized RNA/DNA level with ligand (relative to sTRSVctl = 100) (log10 (% of sTRSVctl)); higher = less ribozyme self-cleavage, higher mRNA level; settings: ligand concentration (+) RNA-Seq: 5 mM, HEK293T, reporter: mCherry (pCS4076), ligand present: yes
Description: as §1

theophylline [3] = variants of: B1; assay: normalized RNA/DNA level without ligand (relative to sTRSVctl = 100) (log10 (% of sTRSVctl)); higher = less ribozyme self-cleavage, higher mRNA level; settings: HEK293T, reporter: mCherry (pCS4076), ligand present: no
Description: as §1

theophylline [4] = variants of: B1; assay: FACS-Seq fitted mean relative fluorescence mCherry/BFP with ligand (log10 relative fluorescence); ligand concentration (+) FACS-Seq: 1 mM; higher = higher reporter protein expression; settings: HEK293T, ligand present: yes
Description: as §1

Row | Variant | FACS-Seq fitted mean (log10) (theophylline [1]) | normalized RNA/DNA level with ligand (log10) (theophylline [2]) | normalized RNA/DNA level without ligand (log10) (theophylline [3]) | FACS-Seq fitted mean (log10) (theophylline [4])
1 | GCUGUCACCGGAAUACCAGCAUCGUCUUGAUGCCCUUGGAAGUCCGGUCUGAUGAGUCCACUCAGGACGAAACAGC [ACUCA] | 0.648 ± 0.038 | 1.97 ± 0.14 | 1.92 ± 0.076 | 0.659 ± 0.088
2 | GCUGUCACCGGAAUACCAGCAUCGUCUUGAUGCCCUUGGAAGUCCGGUCUGAUGAGUCCAAACCGGACGAAACAGC [AAACC] | 0.153 ± 0.14 | 1.96 ± 0.097 | 1.91 ± 0.14 | 0.18 ± 0.0037
3 | GCUGUCACCGGAAUACCAGCAUCGUCUUGAUGCCCUUGGAAGUCCGGUCUGAUGAGUCCCUCUCGGACGAAACAGC [CUCUC] | 0.298 ± 0.1 | 2.03 ± 0.027 | 1.95 ± 0.045 | 0.448 ± 0.12
4 | GCUGUCACCGGAAUACCAGCAUCGUCUUGAUGCCCUUGGAAGUCCGGUCUGAUGAGUCCCUCUUGGACGAAACAGC [CUCUU] | 0.739 ± 0.01 | 2.032 ± 0.0025 | 1.91 ± 0.07 | 0.874 ± 0.038
5 | GCUGUCACCGGAAUACCAGCAUCGUCUUGAUGCCCUUGGAAGUCCGGUCUGAUGAGUCCAACUUGGACGAAACAGC [AACUU] | 1.01 ± 0.076 | 1.9847 ± 0.0011 | 1.89 ± 0.059 | 0.981 ± 0.015
6 | GCUGUCACCGGAAUACCAGCAUCGUCUUGAUGCCCUUGGAAGUCCGGUCUGAUGAGUCCGAGCGGGACGAAACAGC [GAGCG] | 0.793 ± 0.054 | 1.94 ± 0.066 | 1.79 ± 0.033 | 0.81 ± 0.05
7 | GCUGUCACCGGAAUACCAGCAUCGUCUUGAUGCCCUUGGAAGUCCGGUCUGAUGAGUCCGAAGGGGACGAAACAGC [GAAGG] | 0.991 ± 0.26 | 1.87 ± 0.011 | 1.72 ± 0.12 | 0.957 ± 0.057
8 | GCUGUCACCGGAAUACCAGCAUCGUCUUGAUGCCCUUGGAAGUCCGGUCUGAUGAGUCCCUGUAGGACGAAACAGC [CUGUA] | 0.501 ± 0.02 | 2.08 ± 0.067 | 1.61 ± 0.052 | 0.643 ± 0.013
9 | GCUGUCACCGGAAUACCAGCAUCGUCUUGAUGCCCUUGGAAGUCCGGUCUGAUGAGUCCUCCCGGGACGAAACAGC [UCCCG] | 1.07 ± 0.16 | 2.027 ± 0.0081 | 2.008 ± 0.0028 | 1.055 ± 0.0097
